# Laboratory results from PMC9270954.
# Molecular target: GST–Rac1a (full-length Dictyostelium Rac1a as a GST fusion, GTP-bound form) (Dictyostelium) (UniProt P34144)
"fold activation of the GTP hydrolysis rate of GST–Rac1a (10 µM) by 2.5 µM GST–GAP, 10 min at 20°C, free phosphate by CytoPhos; Rac1a alone normalized to 1.0 [fold]","fold activation of the GTP hydrolysis rate of GST–Rac1a (10 µM) by 2.5 µM GST–GAP-RΔA, 10 min at 20°C, free phosphate by CytoPhos; Rac1a alone normalized to 1.0 [fold]",Substance
5.8,,"GST–GAP (isolated GAP domain of CARMIL-GAP, residues 715–858, as a GST fusion) (domain or fragment)"
,1.74,"GST–GAP-RΔA (GAP domain of CARMIL-GAP with the conserved arginine changed to alanine, as a GST fusion) (domain or fragment)"
